Test results from the Immune Epitope Database (IEDB).

Columns and labels:
Assay in all cases: IEDB peptide-MHC binding, purified MHC/competitive/radioactivity; filed as Kd, often an IC50 or EC50 that approximates it; ≥ and ≤ were set here for values at or beyond the usual limits of such assays
HLA-A*02:02 = molecular target: HLA-A*02:02
HLA-A*02:03 = molecular target: HLA-A*02:03
HLA-A*02:06 = molecular target: HLA-A*02:06
HLA-A*03:01 = molecular target: HLA-A*03:01
HLA-A*68:01 = molecular target: HLA-A*68:01
HLA-A*31:01 = molecular target: HLA-A*31:01
HLA-A*11:01 = molecular target: HLA-A*11:01
HLA-A*33:01 = molecular target: HLA-A*33:01
[1] = source organism: Vaccinia virus WR
[2] = source organism: Dengue virus 3 Martinique/1243/1999
[3] = source organism: Dengue virus 4 Philippines/H241/1956
[4] = source organism: SARS coronavirus Tor2
[5] = source organism: Lassa virus Josiah
[6] = source organism: Mammarenavirus whitewaterense

| Sequence | Kd (HLA-A*02:02; [1]) | Kd (HLA-A*02:03; [1]) | Kd (HLA-A*02:06; [1]) | also measured |
| --- | --- | --- | --- | --- |
| NIVTDLENRL | 261 nM | 17600 nM | 1550 nM | – |
| LIQYRQQLEL | ≥ 32800 nM | 19500 nM | ≥ 52600 nM | – |
| IMSMMNITRL | 61.8 nM | 106 nM | 585 nM | – |
| LVITYCLVT | 6980 nM | 3250 nM | 8000 nM | – |
| RVNHAKYMVT | ≥ 33600 nM | 1050 nM | 9330 nM | – |
| NMDKVSAQNI | 8020 nM | 16800 nM | ≥ 69800 nM | – |
| AATKRYPGVM | ≥ 20100 nM | ≥ 47900 nM | ≥ 46900 nM | – |
| EVMPEKRNVV | ≥ 20200 nM | 2620 nM | 12100 nM | – |
| LLLGVGLAMA | – | – | – | Kd (HLA-A*02:03; [2]): 2.33 nM; Kd (HLA-A*02:06; [2]): 3.81 nM |
| CLKNEGVSGL | 127 nM | 25.1 nM | 14100 nM | – |
| PQDNQLAYV | – | – | – | Kd (HLA-A*02:06; source organism: Dengue virus 1 Brazil/97-11/1997): 166 nM |
| QQLCTMERT | ≥ 77800 nM | 4520 nM | 929 nM | – |
| IMSIGFEARI | 703 nM | 1500 nM | 1600 nM | – |
| RVNDLNRMPT | 1360 nM | 1440 nM | 7720 nM | – |
| SVDEEGCGPL | 14800 nM | ≥ 38700 nM | 12700 nM | – |
| YLSSRAKLA | – | – | – | Kd (HLA-A*02:03; [3]): 36 nM |
| KTPVIVVPVI | 9090 nM | 6200 nM | 1890 nM | – |
| RTTWAFCEV | – | – | – | Kd (HLA-A*02:06; [3]): 23.1 nM |
| GIADIRDKYM | 0.693 nM | 48.2 nM | 1780 nM | – |
| RVFKKIMSI | 350 nM | 0.18 nM | 75.2 nM | – |
| ELMMTTIGIV | – | – | – | Kd (HLA-A*02:03; source organism: Dengue virus 2 Peru/IQT2913/1996): 2.02 nM |
| LLVAHYAII | – | – | – | Kd (HLA-A*02:03; source organism: Dengue virus 2 Jamaica/1409/1983): 27.3 nM |
| GMAMTTVLSI | – | – | – | Kd (HLA-A*02:03; [3]): 6.52 nM |
| QLMYDIINSV | 1.87 nM | 0.139 nM | 5.61 nM | – |
| HLTENNLYI | 114 nM | 14400 nM | 1810 nM | – |
| YVKNGTKGKL | 5720 nM | 7170 nM | ≥ 28400 nM | – |

| Sequence | Kd (HLA-A*02:02; [1]) | Kd (HLA-A*02:03; [1]) | Kd (HLA-A*02:06; [1]) | also measured |
| --- | --- | --- | --- | --- |
| FMRFFTLGSI | – | – | – | Kd (HLA-A*02:02; [4]): 24.2 nM; Kd (HLA-A*02:03; [4]): 0.76 nM; Kd (HLA-A*02:06; [4]): 195 nM |
| GIYNCCESNI | 68.3 nM | 140 nM | 290 nM | – |
| AIAACAMLLV | – | – | – | Kd (HLA-A*02:02; [4]): 5.9 nM; Kd (HLA-A*02:03; [4]): 31.6 nM; Kd (HLA-A*02:06; [4]): 77.8 nM |
| YIMRVMANNV | 23 nM | 1.96 nM | 14.2 nM | – |
| EIDVSEVKTL | 4950 nM | 2240 nM | ≥ 56000 nM | – |
| GVLIAGIIL | 5240 nM | 1040 nM | 951 nM | – |
| YLVQQESSFV | – | – | – | Kd (HLA-A*02:02; [4]): 12700 nM; Kd (HLA-A*02:03; [4]): 17.5 nM; Kd (HLA-A*02:06; [4]): 386 nM |
| SLVYGIRCV | 2940 nM | 3.83 nM | 168 nM | – |
| IAVASGLLWV | – | – | – | Kd (HLA-A*02:06; [3]): 10.6 nM |
| TTPLISFFGL | ≥ 5000 nM | 17600 nM | 3360 nM | – |
| FANVISKIYT | 7790 nM | 5310 nM | 1660 nM | – |
| KLYIALCKVT | 7110 nM | 625 nM | 6360 nM | – |
| LMSDNPKAST | 8880 nM | 938 nM | ≥ 47700 nM | – |
| ILYYGANGST | 341 nM | 39.3 nM | 1840 nM | – |
| LAELLEMKYA | 999 nM | 1040 nM | 2450 nM | – |
| YIESKAKQL | 144 nM | 439 nM | 2990 nM | – |
| VMHINSPFKV | 60.3 nM | 2.51 nM | 393 nM | – |
| PASISSVLT | 1380 nM | 1360 nM | 1490 nM | – |
| SLYKGVYEL | – | – | – | Kd (HLA-A*02:02; [5]): 56.8 nM; Kd (HLA-A*02:03; [5]): 5.81 nM; Kd (HLA-A*02:06; [5]): 394 nM |
| LFYVSSIFLH | – | – | – | Kd (HLA-A*03:01; [6]): 6040 nM; Kd (HLA-A*68:01; [6]): 980 nM; Kd (HLA-A*31:01; [6]): 319 nM; Kd (HLA-A*11:01; [6]): 2240 nM; Kd (HLA-A*33:01; [6]): 73.7 nM |
| GIPYCNYSK | – | – | – | Kd (HLA-A*03:01; [5]): 3330 nM; Kd (HLA-A*68:01; [5]): 444 nM; Kd (HLA-A*31:01; [5]): ≥ 45000 nM; Kd (HLA-A*11:01; [5]): 118 nM; Kd (HLA-A*33:01; [5]): ≥ 24200 nM |
| DVDIPTFNSL | 1810 nM | 1030 nM | 9710 nM | – |
| NITTLLNETA | 218 nM | 106 nM | 1130 nM | – |
| ILAEYIRHR | – | – | – | Kd (HLA-A*03:01; [1]): 77.5 nM; Kd (HLA-A*68:01; [1]): 15 nM; Kd (HLA-A*31:01; [1]): 13.6 nM; Kd (HLA-A*11:01; [1]): 1450 nM; Kd (HLA-A*33:01; [1]): 48.4 nM |
| GFAAYNRYR | – | – | – | Kd (HLA-A*03:01; [4]): 5710 nM; Kd (HLA-A*68:01; [4]): ≥ 27000 nM; Kd (HLA-A*31:01; [4]): 821 nM; Kd (HLA-A*11:01; [4]): 6570 nM; Kd (HLA-A*33:01; [4]): 9670 nM |
| DIFVSLVKK | – | – | – | Kd (HLA-A*03:01; [1]): 9920 nM; Kd (HLA-A*68:01; [1]): 0.538 nM; Kd (HLA-A*31:01; [1]): ≥ 77900 nM; Kd (HLA-A*11:01; [1]): 27.8 nM; Kd (HLA-A*33:01; [1]): 54 nM |
